From paper PMC11108873, “Emergence of a clinical Salmonella enterica serovar 1,4,[5], 12: i:-isolate, ST3606, in China with susceptibility decrease to ceftazidime-avibactam carrying a novel blaCTX-M-261 variant and a blaNDM-5” (European Journal of Clinical Microbiology & Infectious …, 2024)

How the values were obtained:
Experiment in all cases: purified protein
Conditions in all cases: 50 mM sodium phosphate pH 7.0, 30 °C, BSA added to enzyme dilution
[1] = system: CC(C)(O/N=C(\C(=O)N[C@@H]1C(=O)N2C(C(=O)[O-])=C(C[n+]3ccccc3)CS[C@H]12)c1csc(N)n1)C(=O)O
[2] = system: CO/N=C(\C(=O)N[C@@H]1C(=O)N2C(C(=O)[O-])=C(C[N+]3(C)CCCC3)CS[C@H]12)c1csc(N)n1
[3] = system: CO/N=C(\C(=O)N[C@@H]1C(=O)N2C(C(=O)O)=C(COC(C)=O)CS[C@H]12)c1csc(N)n1
[4] = system: CO/N=C(\C(=O)N[C@@H]1C(=O)N2C(C(=O)O)=C(CSc3nc(=O)c(=O)[nH]n3C)CS[C@H]12)c1csc(N)n1

Substance CTX-M-1 (Escherichia coli) has a Km [1] of 328.8 ± 42 µM, a kcat [1] of 43.6 ± 3.7 s⁻¹ and a kcat/Km [1] of 130000 M⁻¹ s⁻¹. The Km [2] was 146 ± 21.3 µM, the kcat [2] was 27.9 ± 8.6 s⁻¹ and the kcat/Km [2] was 190000 M⁻¹ s⁻¹. The Km [3] was 17.8 ± 2.5 µM, the kcat [3] was 111 ± 25 s⁻¹ and the kcat/Km [3] was 6.2e+06 M⁻¹ s⁻¹. For the same substance, the Km [4] was 10.5 ± 1.8 µM, the kcat [4] was 105 ± 4.3 s⁻¹ and the kcat/Km [4] was 9.98e+06 M⁻¹ s⁻¹.
